# From the supplement of paper PMC10201428
# ± gives the standard deviation of the averaged measurements.
# Tests used:
# [1] = system: VchCAST RNA-guided transposition machinery (E. coli BL21(DE3) host, lacZ target); experiment: relative integration efficiency (T-RL orientation) vs wild-type transposon end (log2 (normalized fold change)); transposon end mutated: right end (5 bp flank + 75 bp right end); higher = more efficient transposition
# Procedure, shortened: (§1)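 Co-transformation of E. coli BL21(DE3) combined a pUC57 mini-transposon donor, holding barcoded pools of 1549 left-end or 1849 right-end variants, with a T7-driven plasmid encoding a CRISPR array, tniQ-cas8-cas7-cas6 and tnsA-tnsB-tnsC. After plating with 0.1 mM IPTG at 37°C for 18 h, input plasmids and genomic integration junctions were PCR-amplified and Illumina-sequenced across two biological output replicates, with four reference barcodes. Relative integration efficiency is the normalised, log-transformed output/input barcode fold change.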
# [2] = system: VchCAST RNA-guided transposition machinery (E. coli BL21(DE3) host, lacZ target); experiment: relative integration efficiency (T-LR orientation) vs wild-type transposon end (log2 (normalized fold change)); transposon end mutated: right end (5 bp flank + 75 bp right end); higher = more efficient transposition
# Procedure, shortened: as §1
Sequence,relative integration efficiency (log2) [1],relative integration efficiency (log2) [2]
ACATTTGTTGATACAACCATTAAATGATAATTCCACCCATCAATTGATAATTATCACACCCAATTTAACTATAACGCTCTGATCATAGTCAGACCAACATTGCTACGACCCGTATTCGCACCGACAC,-1.79 ± 0.23,1.01 ± 0.31
ACATTTGTTGATACAACCATTAAATGATAATTCCACCCCTAAATTGATAATTATCACACCCAATTTAACTATAACGCTCTGATCATAGTCAGACCAACATTGCTACGACCCGTATTCGCACCGACAC,-2.75 ± 0.27,0.256 ± 0.39
ACATTTGTTGATACAACCATTAAATGATAATTCCACCCTTAAATTGATAATTATCACACCCAATTTAACTATAACGCTCTGATCATAGTCAGACCAACATTGCTACGACCCGTATTCGCACCGACAC,-2.08 ± 0.36,0.973 ± 0.22
ACATTTGTTGATACAACCATTAAATGCTAATTCCACCCATAAATTGATAATTATCACACCCAATTTAACTATAACGCTCTGATCATAGTCAGACCAACATTGCTACGACCCGTATTCGCACCGACAC,-0.972 ± 0.32,2.09 ± 0.22
ACATTTGTTGATACAACCATTAAATGGTAATTACACCCATAAATTGATAATTATCACACCCAATTTAACTATAACGCTCTGATCATAGTCAGACCAACATTGCTACGACCCGTATTCGCACCGACAC,-1.34 ± 0.19,1.674 ± 0.011
ACATTTGTTGATACAACCATTAAATGGTAATTCCACCCAAAAATTGATAATTATCACACCCAATTTAACTATAACGCTCTGATCATAGTCAGACCAACATTGCTACGACCCGTATTCGCACCGACAC,-2.14 ± 0.21,0.883 ± 0.18
ACATTTGTTGATACAACCATTAAATGGTAATTCCACCCAAATATTGATAATTATCACACCCAATTTAACTATAACGCTCTGATCATAGTCAGACCAACATTGCTACGACCCGTATTCGCACCGACAC,-2.19 ± 0.42,0.805 ± 0.3
ACATTTGTTGATACAACCATTAAATGGTAATTCCACCCATAAATTGATAATTATCACACCCAATTTAACTATAACGCTCTGATCATAGTCAGACCAACATTGCTACGACCCGTATTCGCACCGACAC,-1.26 ± 0.19,2.07 ± 0.25
ACATTTGTTGATACAACCATTAAATGGTAATTCCACCCATATATTGATAATTATCACACCCAATTTAACTATAACGCTCTGATCATAGTCAGACCAACATTGCTACGACCCGTATTCGCACCGACAC,-1.52 ± 0.24,1.37 ± 0.13
ACATTTGTTGATACAACCATTAAATGTTAATTCCACCCATAAATTGATAATTATCACACCCAATTTAACTATAACGCTCTGATCATAGTCAGACCAACATTGCTACGACCCGTATTCGCACCGACAC,-1.56 ± 0.23,1.73 ± 0.32
ACATTTGTTGATACAACCATTTAATGATAATAACACCCATAAAATGATAATTATCACACCCAATTTAACTATAACGCTCTGATCATAGTCAGACCAACATTGCTACGACCCGTATTCGCACCGACAC,-1.14 ± 0.26,2.01 ± 0.13
ACATTTGTTGATACAACCATTTAATGATAATTACACCCATAAATTGATAATTATCACACCCATAAATTGATATTGCCTCTGATCATAGTCAGACCAACATTGCTACGACCCGTATTCGCACCGACAC,-0.195 ± 0.052,-0.232 ± 0.26
ACATTTGTTGATACAACCATTTTTTGATAATTACACCCATAAATTGATAATTATCACACCCATAAATTGATATTGCCTCTGATCATAGTCAGACCAACATTGCTACGACCCGTATTCGCACCGACAC,-0.627 ± 0.016,-0.748 ± 0.44
ACATTTGTTGATACAACCATTTTTTGATAATTACACCCATTTTATGATAATTATCACACCCATTTTATGATATTGCCTCTGATCATAGTCAGACCAACATTGCTACGACCCGTATTCGCACCGACAC,-1.61 ± 0.23,-1.01 ± 0.052
ACATTTGTTGATACAACCCGAAAATGATAATTACACCCATAAATTGATAATTATCACACCCATAAATTGATATTGCCTCTGATCATAGTCAGACCAACATTGCTACGACCCGTATTCGCACCGACAC,-3.8 ± 0.095,-3.67 ± 0.84
